Test results from patent US20180155450A1 (Sanofi, published 2018).

T1: recombinant human IL4 (human, UniProt P05112 25-153)
T1 sequence (looked up): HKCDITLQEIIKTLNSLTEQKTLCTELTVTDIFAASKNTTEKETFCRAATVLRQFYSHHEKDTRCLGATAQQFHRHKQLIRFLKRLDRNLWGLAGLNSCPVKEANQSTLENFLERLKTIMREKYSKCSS

T2: recombinant human IL4 (human, UniProt P05112 25-153)
T2 construct: also called Antigen1
T2 sequence (looked up): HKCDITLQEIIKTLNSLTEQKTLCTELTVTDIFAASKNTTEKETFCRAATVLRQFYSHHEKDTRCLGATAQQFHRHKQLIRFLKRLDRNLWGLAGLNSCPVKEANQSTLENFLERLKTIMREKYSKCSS


Experiments:
[1] = biological target: T1, recombinant human IL4; experiment: cell-based or functional assay
[2] = biological target: T1, recombinant human IL4; experiment: SPR (Biacore 3000), antibody captured, antigen as analyte
Method: (§1) Kinetic binding analysis by Biacore was performed as follows. Surface plasmon resonance technology on a Biacore 3000 (GE Healthcare) was used for detailed kinetic characterization of purified antibodies. […] Chip surfaces were regenerated with 10 mM glycine pH 2.5. Kinetic parameters were analyzed and calculated in the BIAevaluation program package v4.1 using a flow cell without captured antibody as a reference.

[3] = biological target: T2, recombinant human IL4; experiment: SPR, Biacore 3000; CODV-Ig captured by anti-human Fc, antigen as analyte
Method: as §1

[4] = biological target: T3, recombinant human IL13 (human, UniProt P35225 35-146, limits assumed); experiment: as above
T3 construct: also called Antigen2
T3 sequence (P35225 35-146 limits assumed): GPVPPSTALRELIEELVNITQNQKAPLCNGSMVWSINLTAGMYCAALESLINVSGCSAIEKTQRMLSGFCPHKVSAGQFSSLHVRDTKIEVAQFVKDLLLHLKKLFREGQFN
Method: as §1

[5] = biological target: T2, recombinant human IL4; experiment: kinetic table drawn in the figure; assay not named in Example 9, parental rows equal the BIACORE values of Table 6
[6] = biological target: T2, recombinant human IL4; experiment: SPR, BIACORE 3000; antibody captured by anti-human Fc, antigen 0-25 nM as analyte
Method: Kinetic characterization of purified antibodies was performed using surface plasmon resonance technology on a BIACORE 3000 (GE Healthcare). […] Chip surfaces were regenerated with 10 mM glycine, pH 2.5. Kinetic parameters were analyzed and calculated in the BIAevaluation program package v4.1 using a flow cell without captured antibody as reference.

| IC50 Cellular Assay IL4 [nM] (HEK-Blue IL-4/IL-13 reporter cells, SEAP) [1] | Kd [2] [nM] | Kd [3] [nM] | Kd [4] [nM] | Binder | other results |
| --- | --- | --- | --- | --- | --- |
| 0.04 | 0.001 |  |  | CODV-Ig Batch ID 507 (IL4 × IL13 on HC; L1 GQPKAAP, L2 QPKAA, L3 S, L4 RT) (bispecific antibody) heavy: not shown light: DIVLTQSPASLAVSLGQRATISCRASESVDSYGQSYMHWYQQKAGQPPKLLIYLASNLESGVPARFSGSGSRTDFTLTIDPVQAEDAATYYCQQNAEDSRTFGGGTKLEIKGQPKAAPDIQMTQSPASLSVSVGDTITLTCHASQNIDVWLSWFQQKPGNIPKLLIYKASNLHTGVPSRFSGSGSGTGFTLTISSLQPEDIATYYCQQAHSYPFTFGGGTKLEIKQPKAARTVAAPSVFIFPPSDEQLKSGTASVVCLLNNFYPREAKVQWKVDNALQSGNSQESVTEQDSKDSTYSLSSTLTLSKADYEKHKVYACEVTHQGLSSPVTKSFNRGEC |  |
|  |  | 0.005 | 0.07 | CODV-Ig Batch ID 129 (IL4 × IL13 on LC; L1=1, L2=3, L3=2, L4=4) (bispecific antibody) chain 1: not shown chain 2: DIQMTQSPASLSVSVGDTITLTCHASQNIDVWLSWFQQKPGNIPKLLIYKASNLHTGVPSRFSGSGSGTGFTLTISSLQPEDIATYYCQQAHSYPFTFGGGTKLEIKGDIVLTQSPASLAVSLGQRATISCRASESVDSYGQSYMHWYQQKAGQPPKLLIYLASNLESGVPARFSGSGSRTDFTLTIDPVQAEDAATYYCQQNAEDSRTFGGGTKLEIKGGGRTVAAPSVFIFPPSDEQLKSGTASVVCLLNNFYPREAKVQWKVDNALQSGNSQESVTEQDSKDSTYSLSSTLTLSKADYEKHKVYACEVTHQGLSSPVTKSFNRGEC |  |
|  |  | 0.004 | 0.057 | CODV-Ig Batch ID 130 (IL4 × IL13 on LC; L1=1, L2=4, L3=2, L4=4) (bispecific antibody) chain 1: not shown chain 2: DIQMTQSPASLSVSVGDTITLTCHASQNIDVWLSWFQQKPGNIPKLLIYKASNLHTGVPSRFSGSGSGTGFTLTISSLQPEDIATYYCQQAHSYPFTFGGGTKLEIKGDIVLTQSPASLAVSLGQRATISCRASESVDSYGQSYMHWYQQKAGQPPKLLIYLASNLESGVPARFSGSGSRTDFTLTIDPVQAEDAATYYCQQNAEDSRTFGGGTKLEIKGGGGRTVAAPSVFIFPPSDEQLKSGTASVVCLLNNFYPREAKVQWKVDNALQSGNSQESVTEQDSKDSTYSLSSTLTLSKADYEKHKVYACEVTHQGLSSPVTKSFNRGEC |  |
|  |  |  |  | TBTI/DVD-Ig molecule incorporating anti-IL4 and anti-IL13 sequences (FIG. 7, upper panel) (bispecific antibody, also called TBTI/DVD-Ig format) heavy: not shown light: DIVLTQSPASLAVSLGQRATISCRASESVDSYGQSYMHWYQQKAGQPPKLLIYLASNLESGVPARFSGSGSRTDFTLTIDPVQAEDAATYYCQQNAEDSRTFGGGTKLEIKGGGGSGGGGSDIQMTQSPASLSVSVGDTITLTCHASQNIDVWLSWFQQKPGNIPKLLIYKASNLHTGVPSRFSGSGSGTGFTLTISSLQPEDIATYYCQQAHSYPFTFGGGTKLEIKRTVAAPSVFIFPPSDEQLKSGTASVVCLLNNFYPREAKVQWKVDNALQSGNSQESVTEQDSKDSTYSLSSTLTLSKADYEKHKVYACEVTHQGLSSPVTKSFNRGEC | Kd [5]: 0.0263 nM; koff [5]: 0.00015 s⁻¹; kon [5]: 5.7e+06 M⁻¹ s⁻¹ |
|  |  |  |  | parental anti-IL4 mAb (antibody, V domains shown, also called parental humanized anti-IL4; 8D4) VH: QVQLQQSGPELVKPGASVKISCKASGYSFTSYWIHWIKQRPGQGLEWIGMIDPSDGETRLNQRFQGRATLTVDESTSTAYMQLRSPTSEDSAVYYCTRLKEYGNYDSFYFDVWGAGTLVTVSS VL: DIQMTQSPASLSVSVGDTITLTCHASQNIDVWLSWFQQKPGNIPKLLIYKASNLHTGVPSRFSGSGSGTGFTLTISSLQPEDIATYYCQQAHSYPFTFGGGTKLEIKR | Kd [6]: 0.00783 nM; koff [6]: 0.000195 s⁻¹; kon [6]: 2.49e+07 M⁻¹ s⁻¹ |
| 0.054 | 0.001 |  |  | CODV-Ig Batch ID 508 (IL4 × IL13 on HC; L1 HIDSPNK, L2 QRIEG, L3 V, L4 SL) (bispecific antibody) heavy: not shown light: DIVLTQSPASLAVSLGQRATISCRASESVDSYGQSYMHWYQQKAGQPPKLLIYLASNLESGVPARFSGSGSRTDFTLTIDPVQAEDAATYYCQQNAEDSRTFGGGTKLEIKHIDSPNKDIQMTQSPASLSVSVGDTITLTCHASQNIDVWLSWFQQKPGNIPKLLIYKASNLHTGVPSRFSGSGSGTGFTLTISSLQPEDIATYYCQQAHSYPFTFGGGTKLEIKQRIEGRTVAAPSVFIFPPSDEQLKSGTASVVCLLNNFYPREAKVQWKVDNALQSGNSQESVTEQDSKDSTYSLSSTLTLSKADYEKHKVYACEVTHQGLSSPVTKSFNRGEC |  |
